Experiment [1] has as its target membrane-bound TNFalpha on stably transfected CHO cells (B-220 cells). Put plainly: FACS, beads with CHO-TNFα (B220) cells, Sample 2.
Experiment [2] has the same target. Put plainly: FACS, anti-CD19-APC beads with TNFalpha-transfected CHO cells (Fig. 4b). Background: A flow cytometer gives signals particle by particle.

“APC labeled unrelated antibody (anti-CD 19) (coated on beads)”: the % bound beads in experiment [1] is 0.9%. Besides, in experiment [2], the # Events (P4, CHO cells bound to anti-CD19 beads) came to 6 events; the % Parent (P4, CHO cells bound to anti-CD19 beads) is 0.1%; the % Total (P4, CHO cells bound to anti-CD19 beads) is 0.1%.

(Values after patent EP3964526A1.)
